Measured values published in US8518892B2, “Methods to treat symptoms of pathophysiology related to body mass” (Board of Supervisors of Louisiana State University and …, priority 2005, dated 2013).

System: DIO C57BL/6J mice
Test: Enho 1 ip for 7 days in DIO C57BL/6J mice (Examples 23-25)
Type: in vivo, mouse
Procedure: (§1) The effect of Enho-1 upon weight loss was tested over the course of 7 days using DIO C57BL/6J mice (Charles River Laboratories). The mice were fed a high fat diet (Research Diets 12492) for 10 weeks prior to the start of the experiment, which was begun when the mice were 15-16 weeks of age. Control mice received vehicle only while test mice each received doses of either 90 nmol/kg/d, 900 nmol/kg/d or 9000 nmol/kg/d. The injections were given as 3 ip injections at 0800, 1200 and 1600 h for 7 days. On day 8, the mice were given the 0800 h injection and were sacrificed 1-3 h later.
as §1, with “insulin and glucose” for “weight loss”, “later at which time blood samples were collected and levels of insulin and glucose determined.” for “later.”
The HOMA-IR for each treatment was calculated using the following formula: ((glucose mg/dL÷18)×(insulin ng/ml×25.05))÷22.5
as §1, with “levels of blood lipids” for “weight loss”, “later at which time blood samples were collected and levels of trigylcerides determined. Triglycerides were measured using a Triglyceride L-Type TG H kit (Wako Diagnostics).” for “later.”

[1] = 90 nmol/kg/d ip, listed as Enho-1
[2] = 900 nmol/kg/d ip, listed as Enho-1
[3] = 9000 nmol/kg/d ip, listed as Enho-1

B1: Enho 1: human Enho 1, a 76 amino acid peptide having the sequence SEQ ID NO: 14 (peptide, listed as Homo sapiens)
chain: MGAAISQGALIAIVCNGLVGFLLLLLWVILCWACHSRSADVDSLSESSPNSSPGPCPEKAPPPQKPSHEGSYLLQP
- Blood glucose (90 nmol/kg/d ip): 182 mg/dL
- Delta body weight (90 nmol/kg/d ip): 6.6%
- HOMA-IR (90 nmol/kg/d ip): 15
- HOMA-IR decrease as compared to the control group (90 nmol/kg/d ip): 15%
- Insulin (90 nmol/kg/d ip): 1.3 ng/mL
- TG (blood triglyceride level) (90 nmol/kg/d ip): 22.5 mg/dL
- Weight (pre-treatment) (90 nmol/kg/d ip): 36.5 g
- Weight (termination) (90 nmol/kg/d ip): 34.0 g
- Blood glucose [1]: 182 ± 17 mg/dL
- HOMA-IR [1]: 15 ± 2
- HOMA-IR decrease as compared to the control group [1]: (↓ 32%)
- Insulin [1]: 1.3 ± 0.1 ng/mL
- TG (blood triglyceride level) [1]: 22.5 ± 6.0 mg/dL
- Weight (pre-treatment) [1]: 36.5 ± 1.3 g
- Weight (termination) [1]: 34.0 ± 1.0 g
- Blood glucose (900 nmol/kg/d ip): 212 mg/dL
- Delta body weight (900 nmol/kg/d ip): 7.1%
- HOMA-IR (900 nmol/kg/d ip): 29
- HOMA-IR decrease as compared to the control group (900 nmol/kg/d ip): 29%
- Insulin (900 nmol/kg/d ip): 2.2 ng/mL
- TG (blood triglyceride level) (900 nmol/kg/d ip): 38.0 mg/dL
- Weight (pre-treatment) (900 nmol/kg/d ip): 37.9 g
- Weight (termination) (900 nmol/kg/d ip): 36.0 g
- Blood glucose [2]: 212 ± 11 mg/dL
- HOMA-IR [2]: 29 ± 4
- Insulin [2]: 2.2 ± 0.3 ng/mL
- TG (blood triglyceride level) [2]: 38.0 ± 12.5 mg/dL
- Weight (pre-treatment) [2]: 37.9 ± 1.4 g
- Weight (termination) [2]: 36.0 ± 1.2 g
- Blood glucose (9000 nmol/kg/d ip): 190 mg/dL
- Delta body weight (9000 nmol/kg/d ip): 6.7%
- HOMA-IR (9000 nmol/kg/d ip): 16
- HOMA-IR decrease as compared to the control group (9000 nmol/kg/d ip): 27%
- Insulin (9000 nmol/kg/d ip): 1.3 ng/mL
- TG (blood triglyceride level) (9000 nmol/kg/d ip): 18.5 mg/dL
- TG decrease from the control (9000 nmol/kg/d ip): 19%
- Weight (pre-treatment) (9000 nmol/kg/d ip): 33.8 g
- Weight (termination) (9000 nmol/kg/d ip): 31.6 g
- Blood glucose [3]: 190 ± 16 mg/dL
- HOMA-IR [3]: 16 ± 4
- HOMA-IR decrease as compared to the control group [3]: (↓ 27%)
- Insulin [3]: 1.3 ± 0.2 ng/mL
- TG (blood triglyceride level) [3]: 18.5 ± 1.7 mg/dL
- TG decrease from the control [3]: (↓ 19%)
- Weight (pre-treatment) [3]: 33.8 ± 0.8 g
- Weight (termination) [3]: 31.6 ± 0.7 g
